Assay results: patent publication US8440629B2, “Cyclic receptor-associated protein (RAP) peptides” (Raptor Pharmaceuticals Inc., priority 2007, dated 2013)

T1: MAT CR23 (Homo sapiens, UniProt Q9Y5Y6)
T1 construct: made in house; host or cells: E. coli BL21(DE3) CodonPlus-RIPL, pET30(+)a
T1 sequence (Q9Y5Y6 487-566): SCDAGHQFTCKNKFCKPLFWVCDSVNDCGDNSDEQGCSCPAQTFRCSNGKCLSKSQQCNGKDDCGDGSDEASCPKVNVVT

T2: MAT CR12 (Homo sapiens, UniProt Q9Y5Y6)
T2 construct: termed MAT CR12 (ST14 CR12), amino acids 452-524; made in house; host or cells: E. coli BL21(DE3) CodonPlus-RIPL, pET30(+)a
T2 sequence (Q9Y5Y6 452-524): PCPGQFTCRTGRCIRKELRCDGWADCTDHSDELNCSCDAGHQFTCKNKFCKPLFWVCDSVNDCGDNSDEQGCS


What was measured:
[1] = system: wild-type CHO-K1 cells expressing LRP1; assay: Endocytosis-dependent toxicity assay (MTT); type: cell-based, Chinese hamster; conditions: 100 nM, 48 hours
Description: (§1) In order to determine the ability of the cyclic RAP peptides to bind receptor on the surface of a cell, binding was assessed in the presence of cultured cell lines. To determine whether cyclic RAP peptides could be bound and endocytosed by full-length LRP1 expressed on cells in culture, an endocytosis-dependent toxicity assay was used. Two cell-lines were used, Chinese hamster ovary CHO-K1 cells expressing only one high-affinity RAP-receptor, LRP1, and a mutant CHO-K1 lacking LRP1 expression was used as control. Cells were cultured in BioWhittaker UltraCHO medium (Lonza, Basel, Switzerland) supplemented with 2.5% fetal bovine serum. Cells were seeded in 12-well tissue culture plates. The biotinylated mRAPc was combined with equimolar amounts of a conjugate between streptavidin and the bacterial toxin saporin (ZAP, Advanced Targeting Systems, San Diego, Calif.). The mixture was diluted in MEM without phenol red (Mediatech, Manassas, Va.) supplemented with 10% FBS to 100 nM. Conjugated mRAPc (100 nM) and control agents (mRAPc alone, 100 nM, streptavidin-saporin alone, 100 nM, saporin alone, 1 mM) were cultured with confluent cells and cell death was assayed 48 hours later via MTT assay (Invitrogen, San Diego, Calif.).

[2] = system: LRP-deficient CHO-K1 cells; assay: Endocytosis-dependent toxicity assay (MTT); type: cell-based, Chinese hamster; conditions: 100 nM, 48 hours
Description: as §1

MAT CR23 [3] = biological target: T1, MAT CR23; assay: Binding of sequentially-truncated MatRAP1 (FIG. 9)
Description: Purified, refolded CR protein (1 μg) was bound to Nunc Maxisorp™ 96-well plates in TBS pH 8 supplemented with 5 mM CaCl2 (TBSC) overnight at 4° C. Wells were washed with TBSC and then blocked with TBSC containing 2% bovine serum albumin (BSA). RAP ligands were then incubated with the immobilized receptor at a range of concentrations for 2 hours in the above blocking buffer supplemented with 0.05% Tween-20 at room temperature. Control wells contained no added ligand. As an additional control, to determine whether the absence of calcium affected binding, 10 mM EGTA was included in the incubation medium for some samples. Wells were washed with TBSTC and bound ligands detected with polyclonal anti-RAP (BP41/42, 1:1,000, BioMarin). Excess primary antibody was removed and wells washed before incubation with the secondary antibody, HRP-conjugated goat anti rabbit IgG (Bio-Rad). After washing, TMB substrate solutions (Bio-Rad) were added to detect HRP. Color development was stopped with 1N HCl. Absorption at 450 nm was measured with a microplate spectrophotometer (Molecular Devices). Data were plotted and Kd values derived by non-linear regression with the assumption of single-site binding (GraphPad Prism). […]

VLDLR CR6-8 = biological target: T3, VLDLR CR6-8 (Homo sapiens, UniProt P98155); assay: Solid phase binding assay; conditions: 80 nM ligand, FIG. 7
T3 construct: made in house; host or cells: E. coli BL21(DE3) CodonPlus-RIPL, pET30(+)a
Description: (§2) All expression constructs were sequenced to verify insert sequences and the junctions with the expression vector. Each plasmid was then used to transform BL21(DE3) CodonPlus-RIPL™ cells (Stratagene). Expression of the CR proteins was induced in logarithmic growth-phase cells grown in LB supplemented with 34 μg/mL chloramphenicol, 12.5 μg/mL tetracycline and 15 μg/mL kanamycin by addition of 2 mM IPTG, followed by reduction in incubator temperature to 32° C. and incubation for 4 hours with agitation at […]. Cells were pelleted and resuspended, at 3.5% of the initial culture volume in 10 mM Tris-HCl pH 8, 100 mM NaH2PO4, 8M Urea. Resuspended cells were then frozen in liquid nitrogen, rapidly thawed to 37° C. and sonicated for 10 seconds at an amplitude setting of 60 using a Cole-Parmer CP-130 ultrasonic processor connected to a 3 mm probe. This procedure was repeated three times to effect complete lysis of the cells. Lysates were clarified by spinning twice at 10,000×g in a Sorvall RC-5 centrifuge for 20 minutes at 15° C. Ni-NTA columns (Qiagen Superflow™, 1.5 mL packed bed) were used to purify the CR proteins. Briefly, the resin was equilibrated with two column volumes of lysis buffer. The clarified lysate was then supplemented to 20 mM with imidazole and incubated with the equilibrated Ni-NTA resin overnight at 4° C. The flow-through was discarded. Columns were washed once with one column volume of lysis buffer and then three times with one column volume of TBS pH 8 supplemented with 20 mM imidazole. CR-loaded beads were then removed from the column and CR proteins eluted by incubating at room temperature for 30 minutes with one column volume of the same buffer containing 200 mM imidazole. This step was repeated once and the eluates pooled. Eluted CR protein solutions were then supplemented to 2 M urea, 10 mM CaCl2 and 5 mM DTT. Purified, denatured CR protein solutions were transferred to 3,500 MWCO Slide-A-Lyzer™ (Pierce) cassettes and sequentially dialyzed against a 200-fold excess of 50 mM Tris-HCl pH 8.5, 10 mM CaCl2, 1 mM reduced glutathione, 0.5 mM oxidized glutathione at room temperature overnight and then against TBS supplemented with 5 mM CaCl2 at 4° C. overnight. Protein concentrations were determined by Bradford assay and purity confirmed by SDS-PAGE with Coomassie Brilliant Blue staining.
(§3) Purified, refolded CR protein (1 μg) was bound to Nunc Maxisorp™ 96-well plates in TBS pH 8 supplemented with 5 mM CaCl2 (TBSC) overnight at 4° C. Wells were washed with TBSC and then blocked with TBSC containing 2% bovine serum albumin (BSA). RAP ligands were then incubated with the immobilized receptor at a range of concentrations for 2 hours in the above blocking buffer supplemented with 0.05% Tween-20 at room temperature. Control wells contained no added ligand. As an additional control, to determine whether the absence of calcium affected binding, 10 mM EGTA was included in the incubation medium for some samples. Wells were washed with TBSTC and bound ligands detected with polyclonal anti-RAP (BP41/42, 1:1,000, BioMarin). Excess primary antibody was removed and wells washed before incubation with the secondary antibody, HRP-conjugated goat anti rabbit IgG (Bio-Rad). After washing, TMB substrate solutions (Bio-Rad) were added to detect HRP. Color development was stopped with 1N HCl. Absorption at 450 nm was measured with a microplate spectrophotometer (Molecular Devices). Data were plotted and Kd values derived by non-linear regression with the assumption of single-site binding (GraphPad Prism).
(§4) From the large number of CR pairs with unique combinations of amino acids at A, C, A′ and C′ within the calcium-binding loop of each CR, CR pairs or triplets were selected to test their binding to RAP d3 (FIG. 2). An additional pair derived from the FDC-8D6 protein was tested, designated 8D6 CR12, having the sequence ([…]) (SEQ ID NO: 91). […]

VLDLR CR78 = biological target: T4, VLDLR CR78 (Homo sapiens, UniProt P98155); assay: Solid phase binding assay
T4 construct: a CR pair from VLDLR (CR78); made in house; host or cells: E. coli BL21(DE3) CodonPlus-RIPL, pET30(+)a
Description: as §2, §3, §4

MAT CR23 [4] = biological target: T1, MAT CR23; assay: Solid phase binding assay; conditions: 80 nM ligand, FIG. 7
Description: as §2, §3, §4

MAT CR12 = biological target: T2, MAT CR12; assay: Solid phase binding assay; conditions: 80 nM ligand, FIG. 7
Description: as §2, §3, §4

the other CR pairs = assay: Binding at 80 nM to fourteen CR pairs or triplets (FIG. 7); design: species or system human; conditions: 80 nM ligand
Description: RAP d3, MegaRAP1 d3, VRAP2 d3, MatRAP1 d3 and MatRAP2 d3 were each incubated at 80 nM concentrations with LRP1 CR3-5, LRP6 CR12, LRP6 CR23, LRP6 CR1-3, LRP2 CR89, LRP2 CR2728, LRP2 CR3031, LRP2 CR3435, LRP2 CR34-36, VLDLR CR78, VLDLR CR6-8, MAT CR12, MAT CR23 and MAT CR34. Samples were tested twice, in duplicate, and values combined. Means and standard deviations were then calculated. Blank values obtained from wells incubated in the absence of ligand were used to correct absorbance data.
Purified, refolded CR protein (1 μg) was bound to Nunc Maxisorp™ 96-well plates in TBS pH 8 supplemented with 5 mM CaCl2 (TBSC) overnight at 4° C. Wells were washed with TBSC and then blocked with TBSC containing 2% bovine serum albumin (BSA). RAP ligands were then incubated with the immobilized receptor at a range of concentrations for 2 hours in the above blocking buffer supplemented with 0.05% Tween-20 at room temperature. Control wells contained no added ligand. […] Wells were washed with TBSTC and bound ligands detected with polyclonal anti-RAP (BP41/42, 1:1,000, BioMarin). […] Absorption at 450 nm was measured with a microplate spectrophotometer (Molecular Devices). […]
The apparent dissociation constant for binding of VRAP1 d3 to VLDLR CR78 was determined to be 44±9 nM. […]

Molecule | binding at 80 nM (in words) (MAT CR23 [4]) | binding at 80 nM (in words) (MAT CR12) | binding at 80 nM to the other CR pairs (in words) (the other CR pairs) | other results
mRAPc: minimized RAP d3, E241C, A242G, R314G, I315C, disulfide-cyclized, N-terminal biotin-GGSGG (SEQ ID NO: 99) (disulfide cyclization; N-terminal biotin-GGSGG) CGFREELKHFEAKIEKHNHYQKQLEIAHEKLRHAESVGDGERVSRSREKHALLEGRTKELGYTVKKHLQDLSGGC |  |  |  | effect on cell survival (in words) [1]: no effect; effect on cell survival (in words) [2]: no effect
MatRAP1 N-42: MatRAP1 with 42 amino acids removed from the N-terminus (protein) FREELKHFGAKIERHNHYQKQLEIAHEWLRHAESVGDGERVSRSREKHALLEGRTKELGYTVKKHLQDLSGRISRAR |  |  |  | increase in binding affinity over the full-length d3 variant (MAT CR23 [3]): 3 fold
VRAP1 d3: RAP d3 variant selected on VLDLR CR6-8: R205S, E251R, K256L, K270E, R296L, G313D (protein) LDRLSRVSHQGYSTEAEFEEPRVIDLWDLAQSANLTDKELEAFREELKHFRAKIELHNHYQKQLEIAHEELRHAESVGDGERVSRSREKHALLEGLTKELGYTVKKHLQDLSDRISRAR |  |  |  | binding at 80 nM (in words) (VLDLR CR6-8): bound; binding at 80 nM (in words) (VLDLR CR78; 80 nM ligand, FIG. 7): bound; Kd (VLDLR CR78; solid-phase assay, VLDLR CR78, read-out: apparent dissociation constant (Kd)): 44 ± 9 nM
MatRAP1: RAP d3 variant selected on MAT CR23: E251G, K256R, K270W (protein) LDRLRRVSHQGYSTEAEFEEPRVIDLWDLAQSANLTDKELEAFREELKHFGAKIERHNHYQKQLEIAHEWLRHAESVGDGERVSRSREKHALLEGRTKELGYTVKKHLQDLSGRISRAR | bound | bound | not appreciably | 
MatRAP2: RAP d3 variant selected on MAT CR34: S232P, E239G, E246G, E251L, K256P, I266T, A267V, H268R, K270P, H273Y, R287H, H290Y, K298R, S312F (protein) LDRLRRVSHQGYSTEAEFEEPRVIDLWDLAQPANLTDKGLEAFREGLKHFLAKIEPHNHYQKQLETVREPLRYAESVGDGERVSRSHEKYALLEGRTRELGYTVKKHLQDLFGRISRAR | bound | bound | not appreciably | 
